Measured values taken from patent US10738094B2, “Peptides and combination of peptides for use in immunotherapy against ovarian cancer and other cancers” (immatics biotechnologies GmbH, priority 2015, dated 2020).

These substances were tested against HLA-A*02:01 (Homo sapiens, UniProt P04439, D140Y/D185E/D98H/E176V/E277Q/G131W/G231S/I119V/I121R/I166T/I218V/L300P/L318F/N151K/N90K/P208A/P217A/Q86G/Q94H/R138H/R169H/T345S) (assay: MHC binding assay (UV-ligand exchange, beta2m ELISA)). Conditions: binding to HLA-A*02:01 ranged by peptide exchange yield (UV-ligand exchange, β2m ELISA).
Summary of the method: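 Stabilised complexes were quantified via their β2m light chain: 100-fold-diluted monomers bound to streptavidin plates, then HRP anti-β2m at 2 ug/ml for 1 h at 37° C., TMB read at 450 nm. The value is the yield of UV-induced exchange of a photocleavable peptide for the candidate.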

| Substance | Peptide exchange |
| --- | --- |
| 236 (GLLEAKVSL; listed as Homo sapiens) [compound 236] | “+++” (≥50 = +++) |
| 287 (FLNEFFLNV; listed as Homo sapiens) [compound 287] | “+++” (≥50 = +++) |
| 182 (MLLEAPGIFL; listed as Homo sapiens) [compound 182] | “+++” (≥50 = +++) |
| 15 (VLLTFKIFL; listed as Homo sapiens) [compound 15] | “++” (≥20% = ++) |
| 91 (IMQDFPAEIFL; listed as Homo sapiens) [compound 91] | “++++” (≥75% = ++++) |
| 49 (YLPAVFEEV; listed as Homo sapiens) [compound 49] | “+++” (≥50 = +++) |
| 173 (LLDSASAGLYL; listed as Homo sapiens) [compound 173] | “+++” (≥50 = +++) |
| 101 (ILVGGGALATV; listed as Homo sapiens) [compound 101] | “+++” (≥50 = +++) |
| 234 (ALMEDTGRQML; listed as Homo sapiens) [compound 234] | “++” (≥20% = ++) |
| 188 (GLFPVTPEAV; listed as Homo sapiens) [compound 188] | “+++” (≥50 = +++) |
| 139 (SVMEVNSGIYRV; listed as Homo sapiens) [compound 139] | “+++” (≥50 = +++) |
| 185 (FLIDDKGYTL; listed as Homo sapiens) [compound 185] | “++” (≥20% = ++) |
| 276 (ALFTFSPLTV; listed as Homo sapiens) [compound 276] | “+++” (≥50 = +++) |
| 24 (SLSDGLEEV; listed as Homo sapiens) [compound 24] | “++” (≥20% = ++) |
| 279 (ALWGGTQPLL; listed as Homo sapiens) [compound 279] | “++” (≥20% = ++) |
| 187 (RQISIRGIVGV; listed as Homo sapiens) [compound 187] | “+++” (≥50 = +++) |
| 246 (LLWEVVSQL; listed as Homo sapiens) [compound 246] | “+++” (≥50 = +++) |
| 161 (ALLEGVNTV; listed as Homo sapiens) [compound 161] | “+++” (≥50 = +++) |

| Substance | Peptide exchange |
| --- | --- |
| 192 (KMLDGASFTL; listed as Homo sapiens) [compound 192] | “+++” (≥50 = +++) |
| 224 (TLIDAQWVL; listed as Homo sapiens) [compound 224] | “+++” (≥50 = +++) |
| 151 (KILQQLVTL; listed as Homo sapiens) [compound 151] | “+++” (≥50 = +++) |
| 212 (ALWDQDNLSV; listed as Homo sapiens) [compound 212] | “++” (≥20% = ++) |
| 241 (SLVEVNPAYSV; listed as Homo sapiens) [compound 241] | “+++” (≥50 = +++) |
| 35 (KINDTIYEV; listed as Homo sapiens) [compound 35] | “+++” (≥50 = +++) |
| 119 (FLYIGDIVSL; listed as Homo sapiens) [compound 119] | “++++” (≥75% = ++++) |
| 61 (FLQGYQLHL; listed as Homo sapiens) [compound 61] | “++++” (≥75% = ++++) |
| 155 (RVANLHFPSV; listed as Homo sapiens) [compound 155] | “+++” (≥50 = +++) |
| 153 (FLIANVLYL; listed as Homo sapiens) [compound 153] | “+” (≥10% = +) |
| 243 (LLLNELPSV; listed as Homo sapiens) [compound 243] | “+++” (≥50 = +++) |
| 98 (LIIDQADIYL; listed as Homo sapiens) [compound 98] | “+++” (≥50 = +++) |
| 46 (ILTEENIHL; listed as Homo sapiens) [compound 46] | “+++” (≥50 = +++) |
| 249 (LLDGFLVNV; listed as Homo sapiens) [compound 249] | “+++” (≥50 = +++) |
| 88 (FLLVGDLMAV; listed as Homo sapiens) [compound 88] | “+++” (≥50 = +++) |
| 147 (SLLEAVSFL; listed as Homo sapiens) [compound 147] | “+++” (≥50 = +++) |
| 73 (NIFDLQIYV; listed as Homo sapiens) [compound 73] | “+++” (≥50 = +++) |
| 257 (SIFSAFLSV; listed as Homo sapiens) [compound 257] | “+++” (≥50 = +++) |

Further lines, results first:

| Peptide exchange | Substance |
| --- | --- |
| “+++” (≥50 = +++) | 427 (ALLPLSPYL; listed as Homo sapiens) [compound 427] |
| “++” (≥20% = ++) | 379 (IMEGTLTRV; listed as Homo sapiens) [compound 379] |
| “++” (≥20% = ++) | 566 (VIADGGIQNV; listed as Homo sapiens) [compound 566] |
| “+++” (≥50 = +++) | 583 (ILANDGVLLAA; listed as Homo sapiens) [compound 583] |
| “+++” (≥50 = +++) | 569 (KLVDRTWTL; listed as Homo sapiens) [compound 569] |
| “++” (≥20% = ++) | 559 (VTVPPGPSL; listed as Homo sapiens) [compound 559] |
| “+++” (≥50 = +++) | 605 (KLYEAVPQL; listed as Homo sapiens) [compound 605] |
| “++” (≥20% = ++) | 523 (YQIPRTFTL; listed as Homo sapiens) [compound 523] |
| “++++” (≥75% = ++++) | 339 (GLWEIENNPTVKA; listed as Homo sapiens) [compound 339] |
| “++” (≥20% = ++) | 375 (SLTETIEGV; listed as Homo sapiens) [compound 375] |
| “++” (≥20% = ++) | 389 (LLADVTHLL; listed as Homo sapiens) [compound 389] |
| “+++” (≥50 = +++) | 469 (YLASDEITTV; listed as Homo sapiens) [compound 469] |
| “+++” (≥50 = +++) | 346 (LLDSKVPSV; listed as Homo sapiens) [compound 346] |
| “+++” (≥50 = +++) | 336 (ILLTAIVQV; listed as Homo sapiens) [compound 336] |
| “+++” (≥50 = +++) | 308 (SQYSGQLHEV; listed as Homo sapiens) [compound 308] |
| “+++” (≥50 = +++) | 433 (AMLNEPWAV; listed as Homo sapiens) [compound 433] |
| “+++” (≥50 = +++) | 512 (SLSEIVPCL; listed as Homo sapiens) [compound 512] |
| “+++” (≥50 = +++) | 561 (YLQLTQSEL; listed as Homo sapiens) [compound 561] |
| “++” (≥20% = ++) | 522 (TLWYRSPEV; listed as Homo sapiens) [compound 522] |
| “+++” (≥50 = +++) | 298 (VMITKLVEV; listed as Homo sapiens) [compound 298] |
| “+++” (≥50 = +++) | 613 (RLLPPGAVVAV; listed as Homo sapiens) [compound 613] |

| Peptide exchange | Substance |
| --- | --- |
| “+++” (≥50 = +++) | 592 (RLLSAAENFL; listed as Homo sapiens) [compound 592] |
| “+++” (≥50 = +++) | 635 (SLDSTLHAV; listed as Homo sapiens) [compound 635] |
| “++” (≥20% = ++) | 377 (FLLDSSASV; listed as Homo sapiens) [compound 377] |
| “++” (≥20% = ++) | 355 (SIQQSIERLLV; listed as Homo sapiens) [compound 355] |
| “+++” (≥50 = +++) | 614 (LLLPDQPPYHL; listed as Homo sapiens) [compound 614] |
| “+++” (≥50 = +++) | 551 (KLYESLLPFA; listed as Homo sapiens) [compound 551] |
| “++” (≥20% = ++) | 579 (NLMEMVAQL; listed as Homo sapiens) [compound 579] |
| “+++” (≥50 = +++) | 457 (SLLPGNLVEKV; listed as Homo sapiens) [compound 457] |
| “++++” (≥75% = ++++) | 387 (ALFQATAEV; listed as Homo sapiens) [compound 387] |
| “++++” (≥75% = ++++) | 371 (FLQAHLHTA; listed as Homo sapiens) [compound 371] |
| “++” (≥20% = ++) | 504 (GLSDGNPSL; listed as Homo sapiens) [compound 504] |
| “+++” (≥50 = +++) | 311 (RLYTGMHTV; listed as Homo sapiens) [compound 311] |
| “+++” (≥50 = +++) | 619 (ALQDRVPLA; listed as Homo sapiens) [compound 619] |
| “+++” (≥50 = +++) | 492 (SLFDGFADGLGV; listed as Homo sapiens) [compound 492] |
| “++” (≥20% = ++) | 398 (KLLEEDGTIITL; listed as Homo sapiens) [compound 398] |
| “++++” (≥75% = ++++) | 340 (ALLSMTFPL; listed as Homo sapiens) [compound 340] |
| “+++” (≥50 = +++) | 300 (ALLGQTFSL; listed as Homo sapiens) [compound 300] |
| “++++” (≥75% = ++++) | 395 (ALALGGIAVV; listed as Homo sapiens) [compound 395] |
| “++” (≥20% = ++) | 590 (SLIEKLWQT; listed as Homo sapiens) [compound 590] |
| “++” (≥20% = ++) | 429 (GLVNDLARV; listed as Homo sapiens) [compound 429] |
| “+++” (≥50 = +++) | 622 (RLLGEEVVRVLQA; listed as Homo sapiens) [compound 622] |
